Assay results reported in publication PMC2828547, “UIF, a New mRNA Export Adaptor that Works Together with REF/ALY, Requires FACT for Recruitment to mRNA” (Current Biology, 2009).

Molecular target: T1, GST-UAP56 (UniProt Q13838 1-428)
T1 construct: UAP56
Experiment: pull-down; GST fusion proteins with purified UIF in the presence of RNase; Coomassie staining
Conditions: both partners purified

T1 sequence (Q13838 whole entry): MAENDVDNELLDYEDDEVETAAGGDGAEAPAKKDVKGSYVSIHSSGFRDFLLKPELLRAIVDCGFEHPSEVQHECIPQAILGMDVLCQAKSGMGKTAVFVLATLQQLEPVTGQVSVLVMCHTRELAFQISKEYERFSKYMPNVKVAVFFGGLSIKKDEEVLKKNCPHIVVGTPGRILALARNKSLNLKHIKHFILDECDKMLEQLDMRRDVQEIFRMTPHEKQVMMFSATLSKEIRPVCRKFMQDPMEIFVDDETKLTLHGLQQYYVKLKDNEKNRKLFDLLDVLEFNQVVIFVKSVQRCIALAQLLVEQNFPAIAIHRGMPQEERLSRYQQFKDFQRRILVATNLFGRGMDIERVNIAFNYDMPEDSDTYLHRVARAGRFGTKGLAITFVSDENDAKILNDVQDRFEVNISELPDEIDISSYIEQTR

- binding result: binds
B1: purified UIF (recombinant) (natural protein, human, UniProt Q96QD9 1-318, looked up)
chain: MNRFGTRLVGATATSSPPPKARSNENLDKIDMSLDDIIKLNRKEGKKQNFPRLNRRLLQQSGAQQFRMRVRWGIQQNSGFGKTSLNRRGRVMPGKRRPNGVITGLAARKTTGIRKGISPMNRPPLSDKNIEQYFPVLKRKANLLRQNEGQRKPVAVLKRPSQLSRKNNIPANFTRSGNKLNHQKDTRQATFLFRRGLKVQAQLNTEQLLDDVVAKRTRQWRTSTTNGGILTVSIDNPGAVQCPVTQKPRLTRTAVPSFLTKREQSDVKKVPKGVPLQFDINSVGKQTGMTLNERFGILKEQRATLTYNKGGSRFVTVG
notes: it may be the GB1-6His-UIF of m18; also called recombinant UIF
